Assay results: patent publication US20130225434A1 (BOARD OF TRUSTEES OF THE UNIVERSITY OF ILLINOIS, published 2013)
Changes are numbered by the printed parent chain. Names may count otherwise. Square brackets hold non-standard residues; d marks the D form. * marks the point of attachment. Biotin = O=C1N[C@H]2[C@H](CS[C@H]2CCCCC(=O)*)N1; pY = N[C@@H](Cc1ccc(OP(=O)(O)O)cc1)C(=O)O; pT = C[C@@H](OP(=O)(O)O)[C@H](N)C(=O)O; pS = N[C@@H](COP(=O)(O)O)C(=O)O

B1: A10 variant of the FHA1 domain, phage-displayed (designed binder, not shown: small tags and cut ends)
chain: MENITQPTQQSTQATQRFLIEKFSHEQIGENIVSRVISTTGQIPIRDLSADISQVLKEKRSIKKVWTFGRNPACDYHLGNISRLSNKHFQILLGEDGNLLLNDISTNGTWLNGQKVEKNSYQLLSQGDEITVGVGVESDILRLVIFINDKFKQSLEQNKVDRIRSNLKNT
notes: From the library built on the 3C-3S template
B2: A7 variant of the FHA1 domain, phage-displayed (designed binder, not shown: small tags and cut ends)
chain: B1 chain with H25Q, R142S
notes: as for B1
B3: G9 variant of the FHA1 domain, phage-displayed (designed binder, not shown: large carriers; small tags and cut ends)
chain: B1 chain with Q13R, H25Q, I104V, R142S, R164S
notes: as for B1
B4: C12 variant of the FHA1 domain, phage-displayed (designed binder, not shown: small tags and cut ends)
chain: B1 chain with H25Q, W66R, Y121N, R142S
notes: as for B1
B5: N (designed binder)
FHA1 domain displayed on M13 protein III: B1 chain with H25Q, S34N, Y121N, R142S
notes: also called S34N
B6: K (designed binder)
FHA1 domain displayed on M13 protein III: B1 chain with H25Q, S34K, Y121N, R142S
notes: also called S34K
B7: T (designed binder)
FHA1 domain displayed on M13 protein III: B1 chain with H25Q, S34T, Y121N, R142S
notes: also called S34T
B8: Q (designed binder)
FHA1 domain displayed on M13 protein III: B1 chain with H25Q, S34Q, Y121N, R142S
notes: also called S34Q
B9: E (designed binder)
FHA1 domain displayed on M13 protein III: B1 chain with H25Q, S34E, Y121N, R142S
notes: also called S34E
B10: H (designed binder)
FHA1 domain displayed on M13 protein III: B1 chain with H25Q, S34H, Y121N, R142S
notes: also called S34H
B11: P (designed binder)
FHA1 domain displayed on M13 protein III: B1 chain with H25Q, S34P, Y121N, R142S
notes: also called S34P
B12: G (designed binder)
FHA1 domain displayed on M13 protein III: B1 chain with H25Q, S34G, Y121N, R142S
notes: also called S34G
B13: C (designed binder)
FHA1 domain displayed on M13 protein III: B1 chain with H25Q, S34C, Y121N, R142S
notes: also called S34C
B14: D (designed binder)
FHA1 domain displayed on M13 protein III: B1 chain with H25Q, S34D, Y121N, R142S
notes: also called S34D
B15: R (designed binder)
FHA1 domain displayed on M13 protein III: B1 chain with H25Q, S34R, Y121N, R142S
notes: also called S34R
B16: 3C-3S variant of the FHA1 domain, GST fusion (other)
chain: B1 chain with H25Q, Y121N, R142S
notes: Cell lysate used in the ELISA; not shown: The N-terminal GST of the pGEX-2T vector and the vector junction residues
B17: 4C-4S variant of the FHA1 domain, GST fusion (other)
chain: B1 chain with H25Q, C74S, Y121N, R142S
notes: as for B16
B18: D2 variant of the FHA1 domain, GST fusion (designed binder)
chain: B1 chain with H25Q, S34F, Y121N, R142S
notes: as for B16
B19: Rad9-pY (peptide)
peptide: Biotin-SGSSLEV[pY]EADATFYAKK-NH2
SMILES: CC(C)C[C@H](NC(=O)[C@H](CO)NC(=O)[C@H](CO)NC(=O)CNC(=O)[C@H](CO)NC(=O)CCCC[C@@H]1SC[C@@H]2NC(=O)N[C@@H]21)C(=O)N[C@@H](CCC(=O)O)C(=O)N[C@H](C(=O)N[C@@H](Cc1ccc(OP(=O)(O)O)cc1)C(=O)N[C@@H](CCC(=O)O)C(=O)N[C@@H](C)C(=O)N[C@@H](CC(=O)O)C(=O)N[C@@H](C)C(=O)N[C@H](C(=O)N[C@@H](Cc1ccccc1)C(=O)N[C@@H](Cc1ccc(O)cc1)C(=O)N[C@@H](C)C(=O)N[C@@H](CCCCN)C(=O)N[C@@H](CCCCN)C(N)=O)[C@@H](C)O)C(C)C
B20: Rad9-pS (peptide)
peptide: Biotin-SGSSLEV[pS]EADATFYAKK-NH2
SMILES: CC(C)C[C@H](NC(=O)[C@H](CO)NC(=O)[C@H](CO)NC(=O)CNC(=O)[C@H](CO)NC(=O)CCCC[C@@H]1SC[C@@H]2NC(=O)N[C@@H]21)C(=O)N[C@@H](CCC(=O)O)C(=O)N[C@H](C(=O)N[C@@H](COP(=O)(O)O)C(=O)N[C@@H](CCC(=O)O)C(=O)N[C@@H](C)C(=O)N[C@@H](CC(=O)O)C(=O)N[C@@H](C)C(=O)N[C@H](C(=O)N[C@@H](Cc1ccccc1)C(=O)N[C@@H](Cc1ccc(O)cc1)C(=O)N[C@@H](C)C(=O)N[C@@H](CCCCN)C(=O)N[C@@H](CCCCN)C(N)=O)[C@@H](C)O)C(C)C
B21: Plk1-pT (peptide)
peptide: Biotin-SGSAGPMQS[pT]PLNGAKK-NH2
SMILES: CSCC[C@H](NC(=O)[C@@H]1CCCN1C(=O)CNC(=O)[C@H](C)NC(=O)[C@H](CO)NC(=O)CNC(=O)[C@H](CO)NC(=O)CCCC[C@@H]1SC[C@@H]2NC(=O)N[C@@H]21)C(=O)N[C@@H](CCC(N)=O)C(=O)N[C@@H](CO)C(=O)N[C@H](C(=O)N1CCC[C@H]1C(=O)N[C@@H](CC(C)C)C(=O)N[C@@H](CC(N)=O)C(=O)NCC(=O)N[C@@H](C)C(=O)N[C@@H](CCCCN)C(=O)N[C@@H](CCCCN)C(N)=O)[C@@H](C)OP(=O)(O)O

Target: T1, BRCT-pS (SMILES …)
T1 construct: also called Biotin-BRCT-pS
T1 peptide: Biotin-SGSAYDI[pS]QVFPFAKKK-NH2
Assay: phage ELISA; biotinylated peptide on Neutravidin, A405
Protocol: FIG. 9A is a photograph of 96-well plates containing phage supernatants from 96 individual clones, which were isolated after three rounds of selection, heated (50° C.), cooled, and added to microtiter plate wells coated with the phosphopeptide ligand. Binding of phage particles in the wells was monitored with an anti-M13 antibody conjugated to HRP. FIG. 9B is a graph showing the ratio of the ELISA signals for individual phage clones generated with wells contained with the target protein compared to a negative control protein (background).
Phage particles produced from 96 clones isolated after round #3, were heated at 50° C. for 3 hr and cooled to RT. The phage supernatants were then incubated with both the target peptide (500 ng/well) immobilized on NeutrAvidin (1 μg/well) coated plate wells and an unrelated target (background). Binding phage clones were detected using anti-M13 antibody conjugated to HRP (GE Healthcare). The green, colored product of the enzymatic reaction in the microtiter plate wells was measured at 405 nm using the FLUOstar OPTIMA plate reader (BMG Labtech). […] In some cases, the signal over background ratio ranged from 3 to 20 for clones (FIG. 9B).
B1: no binding.
B2: no binding.
B3: no binding.
B4: no binding.

Target: T2, Rad9-pT peptide with SGS linker (SGS-SLEVpTEADATFYAKK) (yeast, SMILES …)
T2 construct: also called cognate pT peptide; Rad-pT
T2 peptide: Biotin-SGSSLEV[pT]EADATFYAKK-NH2
Assay: phage ELISA on immobilized Rad9-pT, phage normalised to the Flag epitope; anti-M13-HRP, A405
Text: Through Kunkel mutagenesis (Yaffe (2002) Nat Rev Mol Cell Bol 3, 177-86), the amino acid residue at position 34 in the β1 strand of the D2 FHA 1 domain was replaced (from the naturally-occurring V) one at a time with each of the other naturally occurring amino acids and binding to the immobilized Rad9-pT peptide was monitored by phage ELISA. Phage binding was detected using anti-M13 antibody conjugated to Horse Radish Peroxidase (HRP). […] All the variants display an N-terminal Flag peptide and the amount of phage particles used for each variant in this experiment has been normalized for this epitope.
To amplify the phage particles displaying the recombinant FHA1 variants, TG1 bacterial cells (5 mL; Stratagene) harboring the phagemid DNA were infected at mid-log (OD₆₀₀ₙₘ=0.5-0.6) with M13K07 helper phage (New England Biolabs) at a multiplicity of infection (MOI) of 20 for 1 h at 37° C. at 150 rpm. Infected cells were centrifuged, and the pellet was resuspended in fresh Luria Bertani medium (LB: 10 g Tryptone, 5 g Yeast extract, and 10 g NaCl per liter) supplemented with 50 μg/mL carbenicillin and 50 μg/ml kanamycin, and phage were amplified overnight at 30° C. at 250 rpm. All of the phage ELISA steps were performed at room temperature. Biotinylated peptides (100 μL, 5 μg/mL) were immobilized on Nunc MaxiSorp flat-bottom 96 well plates (Thermo Fisher Scientific) via NeutrAvidin™ Biotin binding protein (100 μL, 10 μg/mL; Thermo Fisher Scientific) and blocked with 2% skim milk in 1×PBS (200 μL per well).
B5: no binding.
B6: no binding.
B7: no binding.
B8: no binding.
B9: no binding.
B10: no binding.
B11: no binding.
B12: no binding.
B13: no binding.
B14: no binding.
B15: no binding.

Target: T1, BRCT-pS
Assay: ELISA with GST fusion (cell lysate); biotinylated peptide on Neutravidin; anti-GST-HRP, A405 [b]
B16: no binding.
B17: no binding.
B18: no binding.

The binders below were run against T3, WT FHA1 domain of S. cerevisiae Rad53, phage-displayed (protein III fusion on bacteriophage M13) (Saccharomyces cerevisiae; bacteriophage …, UniProt P22216 1-170) (assay: phage ELISA; biotinylated peptide on Neutravidin; anti-M13-HRP, A405 [a]).
T3 construct: not shown: minor coat protein III (pIII, gene III product) of bacteriophage M13
T3 sequence: B1 chain with H25Q, S34C, S38C, Y121N, R142S, S154C
Text: Binding of phage particles was detected using anti-M13 antibody conjugated to HRP. FIG. 4(b) is a graph of the results of ELISA experiments of GST fusions of the WT FHA1 domain and three of its variants, 3C-3S, 4C-4S, and D2, that bound specifically to the cognate pT peptide (Rad9-pT; shown as solid histograms) immobilized on plastic microtiter plate wells via Neutravidin. Binding was detected using anti-GST antibody conjugated to HRP. The peptide sequences for Rad9-pT, Rad9-T, Rad9-pS, Rad9-pY, Plk1-pT and BRCT-pS are SGSSLEVp[…] (SEQ ID NO: 1), […] (SEQ ID NO: 2), SGSSLEVp[…] (SEQ ID NO: 3), SGSSLEVp[…] (SEQ ID NO: 4), […]p[…] (SEQ ID NO: 5) and SGSAYDIp[…] (SEQ ID NO: 6), respectively. The peptide sequence for the WT FHA1 domain from S. cerevisiae Rad53 protein kinase includes […] (SEQ ID NO:7), which includes residues 1-170 of S. cerevisiae Rad53 (SEQ ID NO:8) (Liao et al. (2000) J. Mol. Biol 304, 941-51; Durocher et al. (1999) Mol Cell 4). […] The β-strands are labeled from 1 to 11 in the WT FHA1 domain structure and the N- and C-termini are noted.
B19: no binding.
B20: no binding.
B21: no binding.
